Target: EBOV-GP-RBD without the glycan cap and MLD, displayed on the cell surface (EGPdcm, wild type) (Zaire ebolavirus)
Assay: flow cytometry on cells

NPC1-His (from UniProt O15118 23-1278) (receptor)
percent NPC1 binding (positive cells): 94.7% | percent NPC1 binding (positive cells), without competitor: 76.4%
